Reference: patent WO2023191079A1 (dated 2023)

Molecular target: T1, SpyCatcher-GOx (fusion protein with SpyCatcher and glucose oxidase in this order from the N-terminus)
T1 construct: also called SpyCatcher-fused glucose oxidase; SpyCatcher fusion GOx
Assay: 5 uM each mixed, overnight at 4 C, SDS-PAGE

B1: scFv-ST (anti-CRP scFv antibody with SpyTag added) (scFv)
scFv: HMASQVQLQQSGAELVKPGASVKLSCTASGFNIKDYYMHWVKQRTEQGLEWIGRIDPEDGETKYAPKFQGKATITADTSSNTAYLQLSSLTSEDTAVYYCARGYYGSEAMDYWGQGTSLTVSSGGGGSGGGGSGGGGSTGSIVMTQSHKFMSTSVGDRVSITCKASQDVNTAVAWYQQKPGQSPKLLIYWASTRHTGVPDRFTGSGFGTDYTLTISSVQAEDLALYYCQQHYSTPWTFGGGTKLEIKRADAAPKLAAAGSGAHIVMVDAYKPTKAEQKLISEEDLNLGGGMRGSHHHHHH
binding result: binds
